From paper PMC5717350, “The human CTF4-orthologue AND-1 interacts with DNA polymerase α/primase via its unique C-terminal HMG box” (Open Biology, 2017)
Blank lines part the entries; values can stand above or below the binder they belong to. No end group written: not given here.

Experiments:
AND-1CT = biological target: T1, AND-1CT (human, UniProt O75717 837-1129); test: fluorescence anisotropy; FP: 25 mM HEPES pH 7.2, 100 mM KCl, 0.5 mM TCEP, 20 nM DNA, 25 C; EMSA: 25 mM HEPES pH 7.2, 100 mM KCl, 5 mM MgCl2, TCEP, 3 uM DNA, 0.75% (so in the source) agarose gel in 0.5x Tris-borate pH 8.3, 4 C; conditions: protein: recombinant; tags: none (His6-MBP removed by TEV); label: 5' 6FAM; single strand
T1 sequence: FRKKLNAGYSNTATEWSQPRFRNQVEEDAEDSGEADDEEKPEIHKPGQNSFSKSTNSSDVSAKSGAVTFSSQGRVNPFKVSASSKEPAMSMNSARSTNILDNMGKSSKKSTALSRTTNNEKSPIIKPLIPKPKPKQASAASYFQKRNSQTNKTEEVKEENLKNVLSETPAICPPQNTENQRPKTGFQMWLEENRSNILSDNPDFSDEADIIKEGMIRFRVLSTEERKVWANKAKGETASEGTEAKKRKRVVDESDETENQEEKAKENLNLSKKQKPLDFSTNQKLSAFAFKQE

AND-1 full length [1] = biological target: T2, AND-1 full length (human, UniProt O75717 1-1129); test: as above; conditions: protein: recombinant; tags: His10-myc; chain copies: 3; label: 5' 6FAM; single strand
T2 sequence: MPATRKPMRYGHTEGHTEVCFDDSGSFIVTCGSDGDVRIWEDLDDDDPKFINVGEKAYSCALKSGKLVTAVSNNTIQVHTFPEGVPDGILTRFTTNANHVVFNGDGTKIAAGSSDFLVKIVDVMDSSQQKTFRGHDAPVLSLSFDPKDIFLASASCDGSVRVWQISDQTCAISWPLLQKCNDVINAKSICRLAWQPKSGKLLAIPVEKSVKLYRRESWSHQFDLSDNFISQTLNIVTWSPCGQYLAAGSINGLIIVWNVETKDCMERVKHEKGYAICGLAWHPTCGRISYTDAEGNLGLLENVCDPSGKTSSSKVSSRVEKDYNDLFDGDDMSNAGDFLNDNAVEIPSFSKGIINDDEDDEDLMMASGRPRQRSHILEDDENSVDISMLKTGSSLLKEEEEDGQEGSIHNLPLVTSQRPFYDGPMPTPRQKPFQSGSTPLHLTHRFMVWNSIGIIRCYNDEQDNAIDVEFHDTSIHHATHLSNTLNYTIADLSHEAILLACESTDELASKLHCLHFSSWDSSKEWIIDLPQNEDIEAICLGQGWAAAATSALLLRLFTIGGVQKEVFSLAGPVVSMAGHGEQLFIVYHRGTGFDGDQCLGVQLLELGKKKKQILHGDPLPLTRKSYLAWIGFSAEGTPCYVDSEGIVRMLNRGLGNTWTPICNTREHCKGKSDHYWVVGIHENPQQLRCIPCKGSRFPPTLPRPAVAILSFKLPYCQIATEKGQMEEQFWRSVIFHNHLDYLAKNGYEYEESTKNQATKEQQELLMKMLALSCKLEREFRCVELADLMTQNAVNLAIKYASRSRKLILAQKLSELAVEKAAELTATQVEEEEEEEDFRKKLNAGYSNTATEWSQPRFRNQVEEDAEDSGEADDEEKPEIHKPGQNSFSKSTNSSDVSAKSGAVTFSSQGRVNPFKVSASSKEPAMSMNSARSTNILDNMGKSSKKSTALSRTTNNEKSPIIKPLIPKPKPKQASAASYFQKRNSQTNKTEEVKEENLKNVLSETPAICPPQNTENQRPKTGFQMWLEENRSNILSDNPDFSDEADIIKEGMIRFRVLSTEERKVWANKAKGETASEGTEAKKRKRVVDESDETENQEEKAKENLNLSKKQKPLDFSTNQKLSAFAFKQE

AND-1 full length [2] = biological target: T2, AND-1 full length; test: EMSA; 5 mM MgCl2; FP: 25 mM HEPES pH 7.2, 100 mM KCl, 0.5 mM TCEP, 20 nM DNA, 25 C; EMSA: 25 mM HEPES pH 7.2, 100 mM KCl, 5 mM MgCl2, TCEP, 3 uM DNA, 0.75% (so in the source) agarose gel in 0.5x Tris-borate pH 8.3, 4 C; conditions: protein: recombinant; tags: His10-myc; chain copies: 3; label: 5' 6FAM on strand 1; fork, 20 bp duplex (1:1-20 with 2:21-40), unpaired arms of 20 nt (1:21-40 3' arm, 2:1-20 5' arm)
[3] = biological target: T3, AND-1 (329–826), SepB domain (human, UniProt O75717 329-826); test: fluorescence polarisation; 30 nM fluorescein-labelled Pol α CIP peptide, AND-1 SepB titrated; 25 mM HEPES pH 7.2, 140 mM NaCl, 5 mM DTT, 5 mM MgCl2, 5% glycerol; 25°C; 96-well plate; conditions: both partners purified
T3 construct: human AND-1, residues 329-826 (SepB domain); residues 329-420 and 824-826 not in the final crystallographic model; Trimer arises from crystallographic symmetry (one protomer per asymmetric unit); also called AND-1 SepB
T3 sequence (looked up): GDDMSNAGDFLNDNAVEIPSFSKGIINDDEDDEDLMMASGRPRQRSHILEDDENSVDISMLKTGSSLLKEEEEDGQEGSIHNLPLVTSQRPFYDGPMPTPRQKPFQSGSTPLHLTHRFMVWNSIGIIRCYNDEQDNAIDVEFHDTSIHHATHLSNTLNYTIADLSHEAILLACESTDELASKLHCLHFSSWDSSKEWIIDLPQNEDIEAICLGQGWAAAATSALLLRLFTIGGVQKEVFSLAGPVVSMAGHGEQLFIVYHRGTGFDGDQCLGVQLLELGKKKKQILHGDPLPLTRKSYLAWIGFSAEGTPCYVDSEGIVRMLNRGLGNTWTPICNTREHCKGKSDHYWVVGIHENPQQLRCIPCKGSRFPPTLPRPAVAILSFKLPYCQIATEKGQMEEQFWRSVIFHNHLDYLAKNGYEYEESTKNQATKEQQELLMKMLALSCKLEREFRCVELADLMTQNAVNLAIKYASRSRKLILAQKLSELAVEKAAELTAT

[4] = biological target: T4, AND-1 SepB + CT (316–1129) (human, UniProt O75717 316-1129); test: pull-down; GST-B fusion proteins (in figure 6a also GST-Pol α CIP, equimolar) bound to 100 µl glutathione agarose, 2.2 nmol AND-1 (1–1129, 316–1129 or 336–826) added as prey; PD buffer, 2.5 mg/ml BSA, 4°C; Coomassie, anti-His western blot in figure 6a; conditions: both partners purified
T4 construct: source: E. coli Rosetta2(DE3), purified (Ni-NTA, Q-Sepharose, TEV cleavage, Superdex 200)
T4 sequence (looked up): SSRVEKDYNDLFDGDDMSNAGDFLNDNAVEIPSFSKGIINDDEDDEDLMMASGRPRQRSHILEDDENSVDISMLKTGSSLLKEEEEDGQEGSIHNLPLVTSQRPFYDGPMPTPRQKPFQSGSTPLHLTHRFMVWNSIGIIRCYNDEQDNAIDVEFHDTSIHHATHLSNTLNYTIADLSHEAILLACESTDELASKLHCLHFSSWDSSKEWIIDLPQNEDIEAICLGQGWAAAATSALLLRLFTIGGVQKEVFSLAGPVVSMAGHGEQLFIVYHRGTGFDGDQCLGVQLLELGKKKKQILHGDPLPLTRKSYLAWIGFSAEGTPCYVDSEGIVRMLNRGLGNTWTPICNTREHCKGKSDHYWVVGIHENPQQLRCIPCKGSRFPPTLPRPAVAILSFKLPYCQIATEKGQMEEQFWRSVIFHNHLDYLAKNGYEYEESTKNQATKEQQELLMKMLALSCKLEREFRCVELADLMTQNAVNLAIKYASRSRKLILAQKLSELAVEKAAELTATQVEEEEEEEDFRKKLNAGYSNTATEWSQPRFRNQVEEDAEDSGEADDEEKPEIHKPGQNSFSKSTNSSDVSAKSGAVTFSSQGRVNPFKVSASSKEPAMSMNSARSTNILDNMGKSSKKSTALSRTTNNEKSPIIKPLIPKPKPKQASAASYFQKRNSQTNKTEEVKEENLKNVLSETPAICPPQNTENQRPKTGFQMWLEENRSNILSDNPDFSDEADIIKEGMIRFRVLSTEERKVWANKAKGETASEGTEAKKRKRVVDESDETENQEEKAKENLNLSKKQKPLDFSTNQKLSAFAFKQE

[5] = biological target: T5, Full-length His10-myc-tagged AND-1 (1–1129) (human, UniProt O75717 1-1129); test: as above; conditions: both partners purified
T5 construct: the oligomeric state was measured only on the SepB constructs; also called His-myc-AND-1; human CTF4-orthologue AND-1; source: Sf9 insect cells (baculovirus, MultiBac), purified (Ni-NTA, Q-Sepharose)
T5 sequence (looked up): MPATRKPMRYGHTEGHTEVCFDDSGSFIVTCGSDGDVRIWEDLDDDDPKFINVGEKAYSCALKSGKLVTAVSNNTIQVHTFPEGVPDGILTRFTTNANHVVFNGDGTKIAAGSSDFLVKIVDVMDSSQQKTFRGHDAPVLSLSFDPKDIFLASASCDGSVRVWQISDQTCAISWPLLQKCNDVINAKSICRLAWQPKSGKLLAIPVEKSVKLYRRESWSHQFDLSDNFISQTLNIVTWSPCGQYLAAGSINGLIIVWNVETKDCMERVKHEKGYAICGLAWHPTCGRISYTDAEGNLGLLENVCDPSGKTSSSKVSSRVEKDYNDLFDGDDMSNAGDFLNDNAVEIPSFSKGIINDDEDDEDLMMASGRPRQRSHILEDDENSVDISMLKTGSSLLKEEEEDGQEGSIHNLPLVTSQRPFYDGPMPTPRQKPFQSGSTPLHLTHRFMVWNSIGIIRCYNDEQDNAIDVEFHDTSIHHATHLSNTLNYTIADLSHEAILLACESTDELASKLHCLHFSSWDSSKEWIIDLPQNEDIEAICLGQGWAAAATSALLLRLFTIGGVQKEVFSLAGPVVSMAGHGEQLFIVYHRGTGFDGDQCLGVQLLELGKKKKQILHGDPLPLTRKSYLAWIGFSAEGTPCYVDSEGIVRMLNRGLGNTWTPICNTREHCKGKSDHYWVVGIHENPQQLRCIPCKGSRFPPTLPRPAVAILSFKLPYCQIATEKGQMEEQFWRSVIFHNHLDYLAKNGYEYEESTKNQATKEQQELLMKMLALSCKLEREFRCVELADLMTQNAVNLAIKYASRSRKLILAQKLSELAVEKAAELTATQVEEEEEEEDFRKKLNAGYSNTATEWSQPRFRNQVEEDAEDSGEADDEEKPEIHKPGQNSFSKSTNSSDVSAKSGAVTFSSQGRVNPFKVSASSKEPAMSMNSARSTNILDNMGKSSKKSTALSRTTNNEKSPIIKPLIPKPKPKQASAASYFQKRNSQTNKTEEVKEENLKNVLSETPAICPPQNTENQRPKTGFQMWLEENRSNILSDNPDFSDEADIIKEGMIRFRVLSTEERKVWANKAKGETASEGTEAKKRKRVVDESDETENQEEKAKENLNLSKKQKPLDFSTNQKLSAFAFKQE

[6] = biological target: T6, MBP-tagged AND-1CT (837–1129) (human, UniProt O75717 837-1129); test: pull-down; MBP-AND-1 constructs bound to 100 µl amylose resin, 25 nmol GST-B added as prey; PD buffer, 2.5 mg/ml BSA, 4°C; eluted with 20 mM maltose; Coomassie; conditions: both partners purified
T6 construct: also called entire AND-1CT; source: E. coli Rosetta2(DE3), purified (Ni-NTA, Superdex 200)
T6 sequence (looked up): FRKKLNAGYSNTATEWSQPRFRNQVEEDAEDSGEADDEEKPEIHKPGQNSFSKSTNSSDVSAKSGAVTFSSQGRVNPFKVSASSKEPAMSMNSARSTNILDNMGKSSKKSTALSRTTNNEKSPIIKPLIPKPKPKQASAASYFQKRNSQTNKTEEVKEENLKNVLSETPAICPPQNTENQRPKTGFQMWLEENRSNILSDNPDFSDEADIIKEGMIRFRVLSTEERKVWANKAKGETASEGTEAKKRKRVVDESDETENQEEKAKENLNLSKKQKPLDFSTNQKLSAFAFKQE

Binder: CTTCCGAGACCTTGCCCATCCCGTAGAACCTGTTATCCAA (ssDNA) [ssDNA 40mer (oligo A)]
- Kd (AND-1CT): ~800 nM
- Kd (AND-1 full length [1]): ~800 nM

B1: fDNA (oligos A+C) (mixed)
DNA 1: CTTCCGAGACCTTGCCCATCCCGTAGAACCTGTTATCCAA
DNA 2: GCTACCTTTGAACCTACGATGATGGGCAAGGTCTCGGAAG
- binding result (AND-1 full length [2]): binds

More lines, now with the values ahead:

- Kd [3]: 39000 nM
B2: Fluorescein-labelled Pol α CIP peptide (152–171) (peptide)
peptide: DLSKDGLLGDILQDLNTETP
modifications: also: fluorescein label, position not given here
notes: source: synthetic peptide (Genosphere Biotechnologies)

- binding result [4]: binds
- binding result [5]: binds
- binding result [6]: binds
B3: GST-BNTD (B subunit amino acids 1–78) (domain or fragment, human, UniProt Q14181 1-78, looked up)
chain: MSASAQQLAEELQIFGLDCEEALIEKLVELCVQYGQNEEGMVGELIAFCTSTHKVGLTSEILNSFEHEFLSKRLSKAR
notes: human DNA polymerase α B subunit, residues 1-78 (four-helix bundle N-terminal domain); also called GST-B(1–78); B N-terminal domain; source: E. coli Rosetta2(DE3), purified (Ni-NTA agarose)
